Article PMC5552742, “Kinetic and Structural Characterization of the Effects of Membrane on the Complex of Cytochrome b5 and Cytochrome c” (Scientific Reports, 2017)

How the values were obtained:
Settings in all cases: both partners purified
[1] = molecular target: T1, full-length rabbit cytochrome b5 (rabbit, UniProt P00169 1-134); test: stopped-flow absorbance kinetics; lipid-free cytb5; 25 °C, anaerobic; pre-reduced cytb5 mixed with ferric cyt c, final 6 uM cytb5 and 6.6 uM cyt c; micro-rates from numerical fit of the scheme binding (k1, k2) then electron transfer (k3); k2 fixed to zero
T1 construct: Uniformly 15N-labelled where it is the observed protein in NMR, unlabelled otherwise; Ferric in NMR; reduced with dithionite (ferrous) for stopped flow; also called cytb 5; cytb5; source: E. coli C41, pLW01 plasmid, purified
T1 sequence (P00169 whole entry): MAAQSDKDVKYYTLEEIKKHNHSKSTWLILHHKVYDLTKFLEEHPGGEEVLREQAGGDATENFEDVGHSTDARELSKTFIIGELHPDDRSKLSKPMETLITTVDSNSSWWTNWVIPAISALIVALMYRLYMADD

[2] = molecular target: T1, full-length rabbit cytochrome b5; test: stopped-flow absorbance kinetics; cytb5 in nanodiscs; 25 °C, anaerobic; pre-reduced cytb5 mixed with ferric cyt c, final 6 uM cytb5 and 6.6 uM cyt c; micro-rates from numerical fit of the scheme binding (k1, k2) then electron transfer (k3)
[3] = molecular target: T1, full-length rabbit cytochrome b5; test: stopped-flow absorbance kinetics; cytb5 in DMPC/DHPC bicelles; 25 °C, anaerobic; pre-reduced cytb5 mixed with ferric cyt c, final 6 uM cytb5 and 6.6 uM cyt c; micro-rates from numerical fit of the scheme binding (k1, k2) then electron transfer (k3)

koff [1]: ~0 s⁻¹
koff [2]: 54.54 ± 0.35 s⁻¹
koff [3]: 46.2 ± 0.86 s⁻¹
B1: equine cytochrome c (natural protein)
chain: not shown
notes: Unlabelled in the titrations into 15N-cytb5, in SEC/DLS and in stopped flow (ferric); uniformly 15N-labelled where it is the observed protein in NMR; also called cyt c; horse cyt c; source: obtained through a collaborator, prepared and purified as described previously; 15N-labeled form expressed and purified as reported in the literature
